The text below walks through data of US5352603A, “Highly alkaline proteases” (Kali-Chemie AG, priority 1989, dated 1994).

The nature of experiment [1]: Washing test in Linitest with European-formulation detergent (Example 20). Particulars: analogous to Example 19. The procedure:
The washing tests were carried out in a Linitest with EMPA 117 (11 cm×11 cm; polyester/cotton blended fabric, soiled with milk, blood and permanent ink) as the test fabric (purchased from the Eidgenoessische Material pruefungsanstalt, Sankt Gallen, Switzerland)- Washing was carried out with 6 g/l IEC test detergent with perborate, type 1 (Lever Sunlicht GmbH, Mannheim; composition: 6.4% by weight linear alkylsulfonates, 2.3% by weight ethoxylated fatty alcohols with 14% ethoxy groups, 2.8% by weight sodium soap, 35% by weight sodium tripolyphosphate, 6% by weight sodium silicate, 1.5% by weight magnesium silicate, 1% by weight carboxy/methylcellulose, 0.2% by weight ethylenediaminetetraacetic acid (EDTA), 0.2% by weight optical brightener (stilbene type), 16.8% by weight sodium sulfate, and 7.8% by weight water as a spray-dried powder without bleach activator plus 20% by weight sodium perborate tetrahydrate) in water having a hardness of 15° on the German hardness scale. The pH of the wash liquor was pH 10.5. The washing time was 30 minutes at 45° C., and in each case 20 U of protease (prepared as described in Example 18) were employed per 100 ml. After the washing process was complete, the pieces of fabric were rinsed three times with tap water, dried and subsequently ironed. The reflection of the pieces of test cloth was determined four times on each side. […]

Experiment [2] in a line: Washing test in Linitest with IEC test detergent with perborate (Example 19). Particulars: pH 10.5, 30 minutes at 45° C. How it is done:
The washing tests were carried out in a Linitest with EMPA 117 (11 cm×11 cm; polyester/cotton blended fabric, soiled with milk, blood and permanent ink) as the test fabric (purchased from the Eidgenoessische Material pruefungsanstalt, Sankt Gallen, Switzerland)- Washing was carried out with 6 g/l IEC test detergent with perborate, type 1 (Lever Sunlicht GmbH, Mannheim; composition: 6.4% by weight linear alkylsulfonates, 2.3% by weight ethoxylated fatty alcohols with 14% ethoxy groups, 2.8% by weight sodium soap, 35% by weight sodium tripolyphosphate, 6% by weight sodium silicate, 1.5% by weight magnesium silicate, 1% by weight carboxy/methylcellulose, 0.2% by weight ethylenediaminetetraacetic acid (EDTA), 0.2% by weight optical brightener (stilbene type), 16.8% by weight sodium sulfate, and 7.8% by weight water as a spray-dried powder without bleach activator plus 20% by weight sodium perborate tetrahydrate) in water having a hardness of 15° on the German hardness scale. The pH of the wash liquor was pH 10.5. The washing time was 30 minutes at 45° C., and in each case 20 U of protease (prepared as described in Example 18) were employed per 100 ml. After the washing process was complete, the pieces of fabric were rinsed three times with tap water, dried and subsequently ironed. The reflection of the pieces of test cloth was determined four times on each side.

B1: Initial protease: non-mutated highly alkaline protease from Bacillus alcalophilus HA1 (DSM 5466), amino-acid sequence of FIG. 1 (SEQ. ID. NO. 2) (protein)
chain: MKKPLGKIVASTALLISVAFSSSIASAAEEAKEKYLIGFNEQEAVSEFVEQVEANDEVAILSEEEEVEIELLHEFETIPVLSVELSPEDVDALELDPAISYIEEDAEVTTMAQSVPWGISRVQAPAAHNRGLTGSGVKVAVLDTGISTHPDLNIRGGASFVPGEPSTQDGNGHGTHVAGTIAALNNSIGVLGVAPSAELYAVKVLGASGSGSVSSIAQGLEWAGNNGMHVANLSLGSPSPSATLEQAVNSATSRGVLVVAASGNSGAGSISYPARYANAMAVGATDQNNNRASFSQYGAGLDIVAPGVNVQSTYPGSTYASLNGTSMATPHVAGAAALVKQKNPSWSNV
Turning to B1, the Reflection in experiment [1] (detergent in a formulation suitable for Europe (anionic and non-ionic surfactant, sodium tripolyphosphate, sodium perborate)) stood at 65.6%; in experiment [2] (6 g/l IEC test detergent with perborate, type 1, 20 U of protease per 100 ml, averages of 16 washing tests), 71.1%. Besides, the “Relative Reflection” value in experiment [1] (relative to initial protease = 100%, detergent in a formulation suitable for Europe) is given as 100%; in experiment [2] (relative to initial protease = 100%, IEC test detergent with perborate, 20 U protease per 100 ml), 100%.
